Results taken from article PMC12421950, “Structural insights into manganese-dependent arylsulfatase from Enterococcus faecium and its catalytic promiscuity” (mBio, 2025).

Key:
[1] = molecular target: arylsulfatase from Enterococcus faecium (EfAS), wild type (Enterococcus faecium); experiment: crystal structure; vapor diffusion at 17°C, 0.1 M sodium cacodylate pH 6.4, 8% PEG3350, 0.2 M MnCl2; space group P42(1)2, two molecules in the asymmetric unit, tetramer through symmetry-related operations
EfAS = molecular target: T1, EfAS (Enterococcus faecium, UniProt I3U6E8); experiment: p-nitrophenol colorimetric assay at […] nm, Lineweaver-Burk; format: biochemical; details: read-out: Kinetic parameters / Km (×10^-3 M); 50 mM sodium acetate pH 4.5, 1 mM MnCl2, 37 °C
T1 construct: gene HMPREF0351_12962; synthetic codon-optimised gene in pSMT3, E. coli BL21(DE3); His6-SUMO tag removed by Ulp1; homotetramer, 323 kDa by SEC; residues 9-488 modelled; C61 partly oxidised to formylglycine
T1 sequence (I3U6E8 1-491 limits assumed): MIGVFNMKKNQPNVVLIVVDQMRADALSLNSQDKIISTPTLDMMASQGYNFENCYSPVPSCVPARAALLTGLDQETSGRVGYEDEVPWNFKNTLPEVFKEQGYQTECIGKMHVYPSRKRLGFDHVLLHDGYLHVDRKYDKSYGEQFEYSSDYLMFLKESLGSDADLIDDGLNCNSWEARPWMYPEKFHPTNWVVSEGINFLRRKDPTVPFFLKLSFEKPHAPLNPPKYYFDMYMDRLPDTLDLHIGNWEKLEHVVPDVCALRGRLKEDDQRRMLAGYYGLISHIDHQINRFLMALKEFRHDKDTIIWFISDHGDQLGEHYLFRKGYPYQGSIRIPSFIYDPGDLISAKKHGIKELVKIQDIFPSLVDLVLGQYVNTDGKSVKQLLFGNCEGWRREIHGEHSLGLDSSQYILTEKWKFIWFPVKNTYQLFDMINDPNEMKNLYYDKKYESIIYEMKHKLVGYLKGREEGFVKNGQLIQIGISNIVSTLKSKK

purified protein [2] = substrate: O=[N+]([O-])c1ccc(OS(=O)(=O)O)cc1; experiment: purified protein; format: biochemical, Enterococcus faecium; details: 50 mM sodium acetate pH 4.5, 1 mM MnCl2, 37 °C
purified protein [3] = substrate: O=[N+]([O-])c1ccc(OP(=O)(O)O)cc1; experiment: purified protein; format: biochemical, Enterococcus faecium; details: 50 mM sodium acetate pH 4.5, 1 mM MnCl2, 37 °C

**Q.** How did the stoichiometry N [1] turn out when “arylsulfatase from Enterococcus faecium (EfAS), wild type (enzyme)” was run?
**A.** The stoichiometry N was 4.

**Q.** With `O=[N+]([O-])c1ccc(OP(=O)(O)c2ccccc2)cc1` [p-nitrophenyl phenylphosphonate] as the molecule, how does the Km (EfAS) read?
**A.** Its Km is 1410 µM.

B1: EfAS (Enterococcus faecium DO) (protein)
chain: MIGVFNMKKNQPNVVLIVVDQMRADALSLNSQDKIISTPTLDMMASQGYNFENCYSPVPSCVPARAALLTGLDQETSGRVGYEDEVPWNFKNTLPEVFKEQGYQTECIGKMHVYPSRKRLGFDHVLLHDGYLHVDRKYDKSYGEQFEYSSDYLMFLKESLGSDADLIDDGLNCNSWEARPWMYPEKFHPTNWVVSEGINFLRRKDPTVPFFLKLSFEKPHAPLNPPKYYFDMYMDRLPDTLDLHIGNWEKLEHVVPDVCALRGRLKEDDQRRMLAGYYGLISHIDHQINRFLMALKEFRHDKDTIIWFISDHGDQLGEHYLFRKGYPYQGSIRIPSFIYDPGDLISAKKHGIKELVKIQDIFPSLVDLVLGQYVNTDGKSVKQLLFGNCEGWRREIHGEHSLGLDSSQYILTEKWKFIWFPVKNTYQLFDMINDPNEMKNLYYDKKYESIIYEMKHKLVGYLKGREEGFVKNGQLIQIGISNIVSTLKSKK
notes: synthetic codon-optimised gene in pSMT3, E. coli BL21(DE3); His6-SUMO tag removed by Ulp1; homotetramer, 323 kDa by SEC; residues 9-488 modelled; C61 partly oxidised to formylglycine
**Q.** Which Km (purified protein [2]) does the source give for B1 here?
**A.** The Km was 677 µM.

**Q.** And the kcat (purified protein [2])?
**A.** Its kcat is 0.0831 s⁻¹.

**Q.** And the kcat/Km (purified protein [2])?
**A.** The kcat/Km was 123 M⁻¹ s⁻¹.

**Q.** What about the Km (purified protein [3]) of the same molecule?
**A.** The Km was 1285 µM.

**Q.** And the kcat (purified protein [3])?
**A.** Its kcat is 0.0318 s⁻¹.

**Q.** What about the kcat/Km (purified protein [3]) of the same molecule?
**A.** Its kcat/Km is 24.8 M⁻¹ s⁻¹.
